Literature values, collected in paper PMC4666935.

Key:
[1] = molecular target: uPA-PAI-1 complex (Homo sapiens) (UniProt P00749)
PAI-1 (Homo sapiens) = PAI-1 (Homo sapiens) (UniProt P05121)
PAI-1 (Homo sapiens), sequence (P05121 24-402): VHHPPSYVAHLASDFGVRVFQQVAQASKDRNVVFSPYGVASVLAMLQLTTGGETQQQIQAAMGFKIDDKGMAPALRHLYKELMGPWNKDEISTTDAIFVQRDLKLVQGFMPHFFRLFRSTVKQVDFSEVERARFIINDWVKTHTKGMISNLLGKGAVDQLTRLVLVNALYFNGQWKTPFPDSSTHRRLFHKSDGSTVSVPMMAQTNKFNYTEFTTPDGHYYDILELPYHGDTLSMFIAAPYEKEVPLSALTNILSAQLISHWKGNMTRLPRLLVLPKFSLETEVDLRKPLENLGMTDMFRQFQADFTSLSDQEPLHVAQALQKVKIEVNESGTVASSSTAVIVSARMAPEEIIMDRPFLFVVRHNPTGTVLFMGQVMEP

vasoinhibin, sequence (P01236 29-227): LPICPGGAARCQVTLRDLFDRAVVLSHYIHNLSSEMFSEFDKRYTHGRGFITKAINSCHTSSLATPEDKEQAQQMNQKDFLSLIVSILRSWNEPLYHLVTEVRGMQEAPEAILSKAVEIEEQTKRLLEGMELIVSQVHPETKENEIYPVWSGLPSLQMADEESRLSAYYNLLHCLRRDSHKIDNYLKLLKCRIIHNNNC
uPA-PAI-1 complex (Homo sapiens), sequence (P05121 24-402, chain 2 of 2, other chains not shown): as the sequence (P05121 24-402) above

## vasoinhibin (from UniProt P01236)
[1]
  Kd: 500 nM
PAI-1 (Homo sapiens)
  Kd: 1000 nM
